From patent US20230309566A1
Ends that are not written are not given here.

Target: Sf9 cells expressing receptor A or receptor B
Experiment: cell-based or functional assay

EC50 of calcium fluorescence (FLIPR Calcium 6) in Sf9 cells expressing receptor A or receptor B [nM]	Binder
1.4	QPPLPRY-NH2 [QPPLPRY-NH2 (SEQ ID NO: 3)]
12.7	QPPVPRY-NH2 [QPPVPRY-NH2 (SEQ ID NO: 4)]
